Experiment in all cases: cell-based or functional assay
Assay [1] addresses SARS-COV-2 spike of variant B.1.1.7 (Alpha) on pseudotyped virus (SARS-COV-2) (UniProt P0DTC2).
Assay [2] has as its target SARS-COV-2 spike of variant B.1.351 (Beta) on pseudotyped virus (SARS-COV-2) (UniProt P0DTC2).
In assay [3] the target is SARS-COV-2 spike of variant B.1.526 (Iota) on pseudotyped virus (SARS-COV-2) (UniProt P0DTC2).
In assay [4] the target is SARS-COV-2 spike of variant B.1.617.2 (Delta) on pseudotyped virus (SARS-COV-2) (UniProt P0DTC2).

Regarding DMAb 2130_FcTM (antibody), the fold reduction in ID50, pseudovirus neutralization in assay [1], in assay [2], in assay [3] and in assay [4] was less than 3 fold each time.

Consider DMAb REGN10987 (antibody), for which, in assay [2], the fold change of pseudovirus neutralization against WA1/2020 was less than 3 fold.

The values above are taken from patent publication US20240409619A1.
